Target: T1, HA-tagged APOBEC3G (human, UniProt Q9HC16 1-384)
T1 construct: APOBEC3G (A3G), human cytidine deaminase, expressed from pA3G-HA; The plasmid pA3G-HA is not described in the Plasmids section; also called A3G-HA; A3G; source: HEK 293T, transfected (pA3G-HA), in lysate
Experiment: co-IP; HEK 293T cells co-transfected with pA3G-HA and wild-type or mutant Vif plasmids; lysed in RIPA 1X 24 h post-transfection; anti-HA antibody 2 h at 4 °C, protein A Dynabeads 1.5 h at 4 °C, 5 washes with cold RIPA; western blot with anti-Vif
Conditions: partners not purified

T1 sequence (Q9HC16 whole entry): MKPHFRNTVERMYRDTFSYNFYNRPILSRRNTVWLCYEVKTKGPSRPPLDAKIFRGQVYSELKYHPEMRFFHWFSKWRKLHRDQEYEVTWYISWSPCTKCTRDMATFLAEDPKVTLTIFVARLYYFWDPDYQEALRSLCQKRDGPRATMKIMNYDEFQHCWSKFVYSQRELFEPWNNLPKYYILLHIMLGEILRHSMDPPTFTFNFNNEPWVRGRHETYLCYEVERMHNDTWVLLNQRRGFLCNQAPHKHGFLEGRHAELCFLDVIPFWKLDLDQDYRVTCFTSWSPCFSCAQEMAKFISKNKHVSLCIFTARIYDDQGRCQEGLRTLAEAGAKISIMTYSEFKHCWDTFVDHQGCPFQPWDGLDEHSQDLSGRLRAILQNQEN

B1: Vif H42/43N (natural protein)
chain: not shown
notes: Vif of HIV-1 NL4.3 (codon-optimized pcDNAhVif) with the mutations H42N and H43N; also called H42/H43-N; Vif mutant H42/43N; source: HEK 293T, transfected (pcDNAhVif mutant), in lysate
fold decrease of binding against wild-type Vif: ~2 fold

Reference: article PMC5171582, “Translational regulation of APOBEC3G mRNA by Vif requires its 5′UTR and contributes to restoring HIV-1 infectivity” (Scientific Reports, 2016)
